This note sets out measurements from patent US20110135647.

The subject of the data set is T1, pp1-18 peptide (cell-permeable peptide, RRRRRRRRRRR-G-MEGISNFKTPSKLSEKKK).
T1 sequence: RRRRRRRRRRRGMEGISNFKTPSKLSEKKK

“CDK1-cyclin B1 recombinant protein complex (New England Biolabs)”: the “phosphorylation of recombinant PBK/TOPK by CDK1-cyclin B1 (in vitro kinase assay with peptide added)” value is recorded as “the phosphorylation of recombinant PBK/TOPK protein by CDK1-cyclin B1 recombinant proteins was diminished in dose-dependent manner by addition of the pp 1-18 peptide”.
